Measured values published in article PMC3032569 (The Biochemical journal, 2009).
Where no end group is shown, it is not given here.

Target: T1, E. coli TonB C-terminal domain (TonB CTD, residues 103-239) (E. coli, UniProt P02929 103-239)
T1 sequence (looked up): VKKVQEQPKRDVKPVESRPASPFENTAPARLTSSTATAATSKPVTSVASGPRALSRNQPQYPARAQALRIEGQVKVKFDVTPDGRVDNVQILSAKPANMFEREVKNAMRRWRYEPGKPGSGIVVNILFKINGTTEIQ
Assay: NMR titration

## Ac-EDTITVTAAP [FhuA TonB box peptide]
  binding result: binds
